Molecular target: RNAP sigma70 holoenzyme (Esigma70) (Escherichia coli) (UniProt P0A7Z4+P0A8V2+P0A8T7+P0A800+P00579)
Assay: KMnO4 footprinting
Conditions: 40 mM Tris-HCl pH 8.0, 1 mM DTT, 0.1 mg/ml BSA, 10 mM MgCl2, 50 mM KCl, 37 C (transcription buffer); 150 nM Esigma70, sample mixed 1:1 with 20 mM KMnO4 for …

Sequence	binding
ACCTCGGTATGCCTTGTGACTGGCTTGACAAGCTTTTCCTCAGCTCCGTAAACTCCTTTCAGTGGGAAATTGTGGGGCAAAGTGGGAATAAGGGGTGAGGCTGGCATGTTCCGGGGAGCAA (double strand) [mraZ promoter (G1p) permanganate template]	binds
ATCGCCAGCGCGCGATGATGTTCCGAAGACTATAAGGCATGTTATAGTCTGGATTATATTGAGGCAAGTCACCCTCCCATTTATTCAGAGTAAAAGTCTATTCTGTGATAAATGGC (double strand) [minC promoter (G1d) permanganate template]	binds
